Data published in patent US20200255542A1 (Merck Sharp & Dohme, published 2020).
Blank lines part the entries; values can stand above or below the binder they belong to.

Experiments:
[1] = molecular target: T1, human coagulation Factor XI (FXI) zymogen (human, UniProt P03951 19-625); test: SPR (ProteOn XPR36), antibody captured by anti-human IgG Fc, FXI as analyte; mean ± SD, N=3
T1 construct: Homodimeric zymogen; plasma-derived (Haematologic Technologies, HCXI-0150); also called human FXI; Human Factor XI
Experimental: (§1) After capture of anti-FXI antibodies, running buffer (1×HBS-N, 5 mM CaCl₂, 0.005% P20, pH 7.4) was injected across all horizontal flow channels (A1-A6) for 5 minutes and allowed to dissociate for 20 minutes at 25 μL/min to remove any non-specifically bound anti-FXI antibodies from the chip surface.
(§2) After capture of anti-FXI antibodies, running buffer was injected across all horizontal flow channels (A1-A6) for 5 minutes and allowed to dissociate for 20 minutes at 25 L/minutes to remove non-specifically bound anti-FXI antibodies from the chip surface.

[2] = molecular target: T2, rhesus monkey FXI zymogen (rhesus monkey, UniProt F6PJ95 19-624); test: as above
T2 construct: also called Rhesus FXI; NHP FXI
Experimental: as §1, §2

[3] = molecular target: T3, cynomolgus monkey FXI zymogen (cynomolgus monkey, UniProt A0A2K5VVW4 19-624); test: as above
T3 construct: also called cyno FXI; NHP FXI
Experimental: as §1, §2

[4] = molecular target: T4, human FXIa (human, UniProt P03951 19-625); test: cell-based or functional assay
[5] = molecular target: T1, human coagulation Factor XI (FXI) …; test: cell-based or functional assay
[6] = molecular target: T5, Rhesus monkey plasma Kallikrein (rhesus monkey, UniProt A0A1D5Q7U7 20-638); test: SPR (Biacore T200), mAb captured on anti-human IgG (Fc) chip, single analyte concentration;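 also: Anti-FXI mAbs captured about 500 RU, anti-RSV mAb as reference, coagulation cascade proteins injected at 500 nM (FXI 5 nM), 25 °C, HBS-EP+ pH 7.4, 1:1 fit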
T5 construct: Recombinant, Merck Sharp & Dohme; also called NHP plasma kallikrein; lot 00AJF; not shown: C-terminal His tag

[7] = molecular target: Human Factor II (α-thrombin) (human, UniProt P00734 328-622); test: as above
Experimental: (§3) Anti-FXI mAbs were captured on a CM5 sensor chip immobilized with anti-human IgG (Fc) capture kit (GE Healthcare) at approximately 500 RU to minimize potential background from co-purifying Igs in plasma derived proteins. Negative control antibody, anti-respiratory syncytial virus (RSV) monoclonal antibody (mAb), was used as a reference and to help reduce background binding of plasma-derived proteins. Binding kinetics was measured using an analyte concentration of FXI at 5 nM; all other coagulation cascade proteins were used at an analyte concentration of 500 nM. Single concentration injections (n=2) were run at 30 μL/min, 25° C., HBS-EP+, pH 7.4.
(§4) Biacore T200 evaluation software was used to fit data to a 1:1 binding model to determine the association rate constant, kₐ (M⁻¹ s⁻¹, where “M” equals molar and “s” equals seconds) and the dissociation rate constant, kd (s⁻¹). These rate constants were used to calculate the equilibrium dissociation constant, KD (M).

[8] = molecular target: T6, Human Factor XII (human, UniProt P00748 20-615); test: as above
T6 construct: also called FXII; HFXII 1212
T6 sequence (looked up): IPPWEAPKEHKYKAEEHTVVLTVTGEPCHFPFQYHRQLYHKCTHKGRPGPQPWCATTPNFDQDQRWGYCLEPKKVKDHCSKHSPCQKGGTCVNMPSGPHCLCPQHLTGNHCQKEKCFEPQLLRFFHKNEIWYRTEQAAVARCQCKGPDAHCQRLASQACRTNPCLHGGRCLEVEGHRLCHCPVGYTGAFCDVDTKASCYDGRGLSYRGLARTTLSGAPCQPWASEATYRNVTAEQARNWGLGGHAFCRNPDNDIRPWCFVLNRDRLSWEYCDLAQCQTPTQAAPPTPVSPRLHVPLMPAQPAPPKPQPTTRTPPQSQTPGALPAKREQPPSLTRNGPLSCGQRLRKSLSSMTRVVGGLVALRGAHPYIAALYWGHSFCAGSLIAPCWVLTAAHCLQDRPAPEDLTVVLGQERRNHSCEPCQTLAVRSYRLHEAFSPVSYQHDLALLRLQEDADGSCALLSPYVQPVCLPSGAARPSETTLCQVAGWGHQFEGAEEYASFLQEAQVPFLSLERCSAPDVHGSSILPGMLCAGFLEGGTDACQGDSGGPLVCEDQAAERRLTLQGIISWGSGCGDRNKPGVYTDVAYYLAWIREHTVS
Experimental: as §3, §4

[9] = molecular target: T7, Cynomolgus monkey plasma Kallikrein (cynomolgus monkey, UniProt A0A2K5VTJ9 20-638); test: as above
T7 construct: Recombinant, Merck Sharp & Dohme; also called NHP plasma kallikrein; lot 65AJE; not shown: C-terminal His tag

[10] = molecular target: T8, Human Factor VIIa Protease (human, UniProt P08709 61-466); test: as above
T8 construct: also called FVIIa; HCVIIA-0031
T8 sequence (looked up): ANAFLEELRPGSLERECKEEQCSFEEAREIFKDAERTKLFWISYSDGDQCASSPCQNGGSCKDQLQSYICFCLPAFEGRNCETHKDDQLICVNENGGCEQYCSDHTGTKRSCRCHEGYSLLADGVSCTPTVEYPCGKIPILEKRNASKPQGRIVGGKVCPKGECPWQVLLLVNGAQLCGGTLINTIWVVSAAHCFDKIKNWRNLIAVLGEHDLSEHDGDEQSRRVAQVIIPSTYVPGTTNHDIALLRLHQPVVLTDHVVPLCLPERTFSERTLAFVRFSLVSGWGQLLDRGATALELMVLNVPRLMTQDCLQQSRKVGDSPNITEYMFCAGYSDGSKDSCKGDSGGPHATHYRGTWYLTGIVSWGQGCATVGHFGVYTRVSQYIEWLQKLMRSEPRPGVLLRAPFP
Experimental: as §3, §4

[11] = molecular target: T9, Human Factor II (Prothrombin) (human, UniProt P00734 44-622); test: as above
T9 construct: also called FII; lot 41AHG
Experimental: as §3, §4

[12] = molecular target: T10, Human plasma Kallikrein (human, UniProt P03952 20-638); test: as above
T10 construct: also called HPKa 1303
Experimental: as §3, §4

[13] = molecular target: T11, Human Factor IX (human, UniProt P00740 47-461); test: as above
T11 construct: also called FIX; FIX zymogen
Experimental: as §3, §4

[14] = molecular target: T12, Human Factor Xa Protease (human, UniProt P00742 41-179; P00742 235-488, limits assumed); test: as above
T12 construct: also called FXa; HFXa 1011
Experimental: as §3, §4

[15] = molecular target: T13, Human Factor X (human, UniProt P00742 41-488); test: as above
T13 construct: also called FX; HFX1010
Experimental: as §3, §4

[16] = molecular target: T14, Human plasma preKallikrein (human, UniProt P03952 20-638); test: as above
T14 construct: also called HPK 1302
Experimental: as §3, §4

[17] = molecular target: T15, Human Factor XIIa Protease (human, UniProt P00748 20-615, limits assumed); test: as above
T15 construct: also called FXIIa; Human Factor Xlla Protease
T15 sequence (looked up): T6 sequence (looked up)
Experimental: as §3, §4

[18] = molecular target: T16, Human Factor VII (human, UniProt P08709 61-466); test: as above
T16 construct: also called FVII; HCVII-0030
T16 sequence (looked up): T8 sequence (looked up)
Experimental: as §3, §4

[19] = molecular target: T17, Human Factor IXa Protease (human, UniProt P00740 47-191; P00740 227-461); test: as above
T17 construct: also called FIXa; HFIXa 1080
Experimental: as §3, §4

[20] = molecular target: T1, human coagulation Factor XI (FXI) …; test: cell-based or functional assay; remark: listed apart in the source
[21] = molecular target: T18, rhesus monkey FXIa (rhesus monkey, UniProt F6PJ95 19-624); test: SPR (ProteOn XPR36), antibody captured by anti-human IgG Fc, FXIa as analyte; mean ± SD, N=3
T18 construct: also called NHP FXIa
Experimental: as §1, §2

[22] = molecular target: T4, human FXIa; test: as above
Experimental: as §1, §2

[23] = molecular target: T19, cynomolgus monkey FXIa (cynomolgus monkey, UniProt A0A2K5VVW4 19-624); test: as above
T19 construct: also called NHP FXIa
T19 sequence (A0A2K5VVW4 entry or part of it): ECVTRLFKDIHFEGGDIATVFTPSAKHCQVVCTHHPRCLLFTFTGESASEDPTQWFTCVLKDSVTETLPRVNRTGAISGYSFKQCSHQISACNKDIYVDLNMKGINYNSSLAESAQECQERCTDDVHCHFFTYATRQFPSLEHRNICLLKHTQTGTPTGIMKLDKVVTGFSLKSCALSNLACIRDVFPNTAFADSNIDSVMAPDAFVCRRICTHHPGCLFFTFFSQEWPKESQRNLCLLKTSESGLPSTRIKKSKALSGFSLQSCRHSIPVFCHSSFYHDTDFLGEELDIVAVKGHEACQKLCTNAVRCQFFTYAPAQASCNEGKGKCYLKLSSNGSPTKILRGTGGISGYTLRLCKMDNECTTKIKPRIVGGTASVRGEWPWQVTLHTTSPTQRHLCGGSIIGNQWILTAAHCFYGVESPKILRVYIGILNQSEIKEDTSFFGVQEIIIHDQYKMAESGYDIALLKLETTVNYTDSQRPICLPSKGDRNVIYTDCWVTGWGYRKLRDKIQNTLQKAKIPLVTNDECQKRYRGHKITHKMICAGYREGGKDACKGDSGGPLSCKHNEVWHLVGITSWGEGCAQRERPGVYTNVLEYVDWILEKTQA
Experimental: as §1, §2

T14 sequence (P03952 20-638 limits assumed): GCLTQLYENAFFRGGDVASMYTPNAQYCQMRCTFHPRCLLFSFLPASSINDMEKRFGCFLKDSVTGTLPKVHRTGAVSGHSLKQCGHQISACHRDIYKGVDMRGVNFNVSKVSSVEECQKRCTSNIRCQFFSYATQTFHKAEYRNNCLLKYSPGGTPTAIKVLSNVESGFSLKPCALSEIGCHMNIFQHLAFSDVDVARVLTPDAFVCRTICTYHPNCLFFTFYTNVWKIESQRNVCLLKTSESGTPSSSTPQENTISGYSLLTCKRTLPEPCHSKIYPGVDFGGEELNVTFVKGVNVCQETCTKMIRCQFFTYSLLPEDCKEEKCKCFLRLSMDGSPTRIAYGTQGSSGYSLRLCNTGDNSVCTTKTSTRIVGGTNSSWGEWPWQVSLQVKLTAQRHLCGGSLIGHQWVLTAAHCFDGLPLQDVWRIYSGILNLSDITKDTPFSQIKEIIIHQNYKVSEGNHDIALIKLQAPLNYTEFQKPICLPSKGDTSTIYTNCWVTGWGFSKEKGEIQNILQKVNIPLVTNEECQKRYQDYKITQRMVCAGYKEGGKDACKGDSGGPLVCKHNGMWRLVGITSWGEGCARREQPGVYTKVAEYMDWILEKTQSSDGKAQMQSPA
T10 sequence (P03952 20-638 limits assumed): as above
T3 sequence (A0A2K5VVW4 entry or part of it): as the sequence (A0A2K5VVW4 entry or part of it) above
T5 sequence (A0A1D5Q7U7 entry or part of it): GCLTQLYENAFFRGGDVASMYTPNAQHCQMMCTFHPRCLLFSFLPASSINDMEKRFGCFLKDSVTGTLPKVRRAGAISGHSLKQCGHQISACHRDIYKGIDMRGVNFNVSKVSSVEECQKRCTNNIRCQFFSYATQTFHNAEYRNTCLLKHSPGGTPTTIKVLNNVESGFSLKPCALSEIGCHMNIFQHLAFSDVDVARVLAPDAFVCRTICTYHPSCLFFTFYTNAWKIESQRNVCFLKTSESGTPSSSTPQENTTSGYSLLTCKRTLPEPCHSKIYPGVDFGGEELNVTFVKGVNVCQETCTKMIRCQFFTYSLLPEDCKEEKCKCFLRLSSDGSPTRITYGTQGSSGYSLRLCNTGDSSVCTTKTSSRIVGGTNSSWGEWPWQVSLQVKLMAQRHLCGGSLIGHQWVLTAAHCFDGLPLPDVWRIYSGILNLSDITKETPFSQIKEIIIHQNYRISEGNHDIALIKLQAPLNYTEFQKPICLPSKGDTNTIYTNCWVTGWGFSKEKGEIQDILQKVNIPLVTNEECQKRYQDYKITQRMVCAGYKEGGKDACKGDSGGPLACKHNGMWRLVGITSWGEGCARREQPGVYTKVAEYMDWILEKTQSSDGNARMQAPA
T18 sequence (F6PJ95 entry or part of it): as the sequence (A0A2K5VVW4 entry or part of it) above, with N101D, E113K, V126I, A191V counted along it
T2 sequence (F6PJ95 entry or part of it): as the sequence (A0A2K5VVW4 entry or part of it) above, with N101D, E113K, V126I, A191V counted along it
T7 sequence (A0A2K5VTJ9 entry or part of it): as the sequence (A0A1D5Q7U7 entry or part of it) above, with N24T counted along it

Kd [1]: 0.1 nM | Kd [2]: 0.0529 nM | Kd [3]: 0.18 nM | FXIa IC50 nM (native, full-length substrate; activation of FIX to FIXa) [4]: 1 nM | FXIa IC50 nM (tri-peptide substrate) [4]: > 1000 nM | FXIIa Activation + HK Inhibition (IC50, nM) [5]: 7.6 nM | FXIIa Activation no HK Inhibition (IC50, nM) [5]: 34 nM | binding result [6]: no binding (tested: 500 nM) | binding result [7]: no binding (tested: 500 nM) | binding result [8]: no binding (tested: 500 nM) | binding result [9]: no binding (tested: 500 nM) | binding result [10]: no binding (tested: 500 nM) | binding result [11]: no binding (tested: 500 nM) | binding result [12]: no binding (tested: 500 nM) | binding result [13]: no binding (tested: 500 nM) | binding result [14]: no binding (tested: 500 nM) | binding result [15]: no binding (tested: 500 nM) | binding result [16]: no binding (tested: 500 nM) | binding result [17]: no binding (tested: 500 nM) | binding result [18]: no binding (tested: 500 nM) | binding result [19]: no binding (tested: 500 nM) | FXI Autoactivation IC50 nM (on dextran sulfate) [20]: 3.3 nM | Kd [21]: 0.175 nM | Kd [22]: 0.0554 nM | Kd [23]: 0.0892 nM
B1: αFXI-18611 IgG4 HC (S228P)(E1)(L105)/LC Kappa (antibody, V domains shown)
VH: EVQLQESGPGLVKPSETLSLTCAVSGYSISSGYFWGWIRQPPGKGLEWIGSILHSGVTYYNPSLKSRVTISVDTSKNQFSLKLSSVTAADTAVYYCARDRTTVSLIEYFQHWGQGTLVTVSS
VL: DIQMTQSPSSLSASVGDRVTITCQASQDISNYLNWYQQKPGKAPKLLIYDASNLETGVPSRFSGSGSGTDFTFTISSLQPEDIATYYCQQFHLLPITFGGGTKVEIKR
notes: Fully human IgG4 (S228P)/kappa; also called αFXI-18611 mAb

Kd [1]: 0.0226 nM | Kd [2]: 0.0722 nM | Kd [3]: 0.013 nM | FXIa IC50 nM (native, full-length substrate; activation of FIX to FIXa) [4]: 0.4 nM | FXIa IC50 nM (tri-peptide substrate) [4]: > 1000 nM | FXIIa Activation + HK Inhibition (IC50, nM) [5]: 6 nM | FXIIa Activation no HK Inhibition (IC50, nM) [5]: 14 nM | binding result [6]: no binding (tested: 500 nM) | binding result [7]: no binding (tested: 500 nM) | binding result [8]: no binding (tested: 500 nM) | binding result [10]: no binding (tested: 500 nM) | binding result [11]: no binding (tested: 500 nM) | binding result [12]: no binding (tested: 500 nM) | binding result [13]: no binding (tested: 500 nM) | binding result [14]: no binding (tested: 500 nM) | binding result [15]: no binding (tested: 500 nM) | binding result [16]: no binding (tested: 500 nM) | binding result [17]: no binding (tested: 500 nM) | binding result [18]: no binding (tested: 500 nM) | binding result [19]: no binding (tested: 500 nM) | FXI Autoactivation IC50 nM (on dextran sulfate) [20]: 5.5 nM | Kd [21]: 0.149 nM | Kd [22]: 0.0374 nM | Kd [23]: 0.0195 nM
B2: αFXI-18623p IgG4 HC (S228P)(Q1)/LC Kappa (antibody, V domains shown)
VH: QVQLQESGPGLVKPSQTLSLTCTVSGGSIYSGAYYWSWIRQHPGKGLEWIGSIHYSGLTYYNPSLKSRVTISVDTSKNQFSLKLSSVTAADTAVYYCARDVDDSSGDEHYGMDVWGQGTTVTVSS
VL: DIQMTQSPSSVSASVGDRVTITCRASQGIDSWLAWYQQKPGKAPKLLIYAASSLQSGVPSRFSGSGSGTDFTLTISSLQPEDFATYYCQQYHIVPITFGGGTKVEIKR
notes: Fully human IgG4 (S228P)/kappa; also called αFXI-18623p-IgG4 (S228P) (Q1)/LC Kappa
